Laboratory results reported in paper PMC5441900.

Columns and labels:
[1] = target: CWI (cell wall invertase) extracted from mature soybean leaves (Glycine max (endogenous in mature leaves))
[2] = target: VI (vacuolar invertase) extracted from mature soybean leaves (Glycine max (endogenous in mature leaves))

inhibition of CWI activity (glucose released from sucrose) of a leaf cell-wall preparation after 30 min at 37 °C with recombinant GmC/VIF2; maximum at about 100 ng [1] [%]	inhibition of VI activity (glucose released from sucrose) of a leaf soluble fraction after 30 min at 37 °C with recombinant GmC/VIF2; maximum at about 100 ng [2] [%]	inhibition of VI activity (glucose released from sucrose) of a leaf soluble fraction after 30 min at 37 °C with recombinant GmCIF1; maximum at about 50 ng, no further effect at 100 ng and 1000 ng [2] [%]	Substance
80	75	–	recombinant GmC/VIF2 (natural protein)
–	–	70	recombinant GmCIF1 (natural protein)
